Laboratory results taken from patent US20160185837A1 (Medimmune Limited, priority 2013, published 2016).
Where two headings read alike, the source gives them in different places. Ends that are not written are not given here.

Columns and labels:
Assay type in all cases: cell-based
[1] = molecular target: T1, human GIP receptor (hGIPr) (Homo sapiens, UniProt P48546); experiment: BSA-cAMP assay, cells expressing human GIP receptor; conditions: BSA-cAMP assay
T1 construct: expressed in transfected cells
T1 sequence (P48546 22-466): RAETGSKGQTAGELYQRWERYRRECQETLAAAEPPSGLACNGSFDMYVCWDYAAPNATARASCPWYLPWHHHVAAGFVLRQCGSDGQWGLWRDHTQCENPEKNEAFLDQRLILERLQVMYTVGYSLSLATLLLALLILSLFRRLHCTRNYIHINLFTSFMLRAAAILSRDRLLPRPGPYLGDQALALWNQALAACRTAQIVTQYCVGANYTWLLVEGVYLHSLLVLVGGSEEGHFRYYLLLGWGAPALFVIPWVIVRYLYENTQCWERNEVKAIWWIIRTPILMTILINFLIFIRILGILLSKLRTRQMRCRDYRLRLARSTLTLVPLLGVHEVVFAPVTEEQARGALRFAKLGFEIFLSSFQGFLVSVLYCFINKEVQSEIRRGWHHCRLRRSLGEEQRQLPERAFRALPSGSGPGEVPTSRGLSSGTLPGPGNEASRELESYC
Method: For human GIPr, two different lines were used, shown as “hGIPr” and “hGIPr (C3)” in Table 11.
(§1) One basic cAMP assays was performed, differing in the medium used for the assay, the “BSA-cAMP assay”:
(§2) BSA-based assay medium: 0.1% bovine serum albumin (BSA) in
(§3) In certain aspects, the assay can also be carried out in medium supplemented with serum albumin that corresponds to the receptor being tested, e.g., human serum albumin for testing cAMP activity at hGIPr or hGLP-1r, rat serum albumin for testing cAMP activity at rGIPr or rGLP-1r, and so on. […] All sample dilutions were made in duplicate.
(§4) A frozen cryo-vial of cells expressing the receptor of interest was thawed rapidly in a water-bath, transferred to pre-warmed assay media and spun at 240×g for 5 minutes. Cells were re-suspended in assay buffer at an optimized concentration (e.g., hGLP-1r and hGIPr cells at 0.5×10^5 cells/ml).
(§5) To this, 5 μL cell suspension was added and the plates incubated at room temperature for 30 minutes.
(§6) cAMP levels were measured using a commercially available cAMP dynamic 2 HTRF kit (Cisbio, Cat #62AM4PEJ), following the two step protocol as per manufacturer's recommendations. In brief; anti-cAMP cryptate (donor fluorophore) and cAMP-d2 (acceptor fluorophore) were made up separately by diluting each 1/20 in conjugate & lysis buffer provided in the kit. 5 μL anti-cAMP cryptate was added to all wells of the assay plate, and 5 μL cAMP-d2 added to all wells except non-specific binding (NSB) wells, to which conjugate and lysis buffer was added. […] Data was transformed to % Delta F as described in manufacturer's guidelines and then transformed to percent activation of maximal native agonist response and analysed by 4-parameter logistic fit to determine EC50 values.
(§7) We used unconstrained 4 parameter logistic fit of data, curve mid-point to determine EC50. This was tested on two occasions, not two batches.

[2] = molecular target: T2, human GLP-1 receptor (hGLP-1r) (Homo sapiens, UniProt P43220); experiment: BSA-cAMP assay, cells expressing human GLP-1 receptor; conditions: BSA-cAMP assay
T2 construct: expressed in transfected cells
Method: as §1, §2, §3, §4, §5, §6, §7

[3] = molecular target: T3, human glucagon receptor (GCGr) (Homo sapiens, UniProt P47871); experiment: BSA-cAMP assay, cells expressing human glucagon receptor
T3 construct: expressed in transfected cells; host or cells: HEK293s or CHO cells
Method: as §1, §2, §3, §4, §5, §6, §7

[4] = molecular target: T4, rat GLP-1 receptor (rGLP-1r) (Rattus norvegicus, UniProt P32301); experiment: BSA-cAMP assay, cells expressing rat GLP-1 receptor; conditions: BSA-cAMP assay
T4 construct: expressed in transfected cells; host or cells: HEK293s or CHO cells
T4 sequence (P32301 22-463): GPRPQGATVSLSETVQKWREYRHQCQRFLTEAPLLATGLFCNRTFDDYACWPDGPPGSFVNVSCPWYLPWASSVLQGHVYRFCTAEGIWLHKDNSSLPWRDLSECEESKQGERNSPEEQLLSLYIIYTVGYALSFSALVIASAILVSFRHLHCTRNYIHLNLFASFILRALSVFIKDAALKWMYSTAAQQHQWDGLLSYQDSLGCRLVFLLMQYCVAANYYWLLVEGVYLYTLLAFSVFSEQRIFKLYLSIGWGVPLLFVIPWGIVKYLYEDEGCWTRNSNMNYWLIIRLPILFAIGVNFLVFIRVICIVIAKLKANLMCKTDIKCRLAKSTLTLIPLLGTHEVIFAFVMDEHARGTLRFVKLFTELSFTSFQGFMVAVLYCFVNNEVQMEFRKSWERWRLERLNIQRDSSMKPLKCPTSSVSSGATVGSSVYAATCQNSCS
Method: as §1, §2, §3, §4, §5, §6, §7
(§8) In order to be able to carry out in vivo studies in rodents, IP088 was tested for potency against the mouse receptors mGIPr and mGLP-1r as well as the rat receptors rGIPr and rGLP-1r, using cells expressing the respective receptors in the cAMP assay described above.

[5] = molecular target: T5, mouse GIP receptor (mGIPr) (Mus musculus, UniProt Q0P543); experiment: BSA-cAMP assay, cells expressing mouse GIP receptor; conditions: BSA-cAMP assay
T5 construct: expressed in transfected cells; host or cells: HEK293s or CHO cells
T5 sequence (Q0P543 19-460): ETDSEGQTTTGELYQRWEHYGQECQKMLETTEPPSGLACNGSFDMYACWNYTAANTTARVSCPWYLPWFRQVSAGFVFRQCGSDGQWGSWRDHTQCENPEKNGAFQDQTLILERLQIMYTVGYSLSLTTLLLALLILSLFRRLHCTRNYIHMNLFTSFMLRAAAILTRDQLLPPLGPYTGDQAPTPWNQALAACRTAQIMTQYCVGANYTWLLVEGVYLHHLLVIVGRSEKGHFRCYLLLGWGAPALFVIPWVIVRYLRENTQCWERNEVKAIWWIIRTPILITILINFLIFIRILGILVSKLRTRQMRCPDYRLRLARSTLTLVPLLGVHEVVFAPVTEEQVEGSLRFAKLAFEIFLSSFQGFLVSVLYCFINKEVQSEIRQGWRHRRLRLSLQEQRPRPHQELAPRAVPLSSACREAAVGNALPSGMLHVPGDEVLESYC
Method: as §1, §2, §3, §4, §5, §6, §7, §8

[6] = molecular target: T6, mouse GLP-1 receptor (mGLP-1r) (Mus musculus, UniProt O35659); experiment: BSA-cAMP assay, cells expressing mouse GLP-1 receptor; conditions: BSA-cAMP assay
T6 construct: expressed in transfected cells; host or cells: HEK293s or CHO cells
T6 sequence (O35659 22-463): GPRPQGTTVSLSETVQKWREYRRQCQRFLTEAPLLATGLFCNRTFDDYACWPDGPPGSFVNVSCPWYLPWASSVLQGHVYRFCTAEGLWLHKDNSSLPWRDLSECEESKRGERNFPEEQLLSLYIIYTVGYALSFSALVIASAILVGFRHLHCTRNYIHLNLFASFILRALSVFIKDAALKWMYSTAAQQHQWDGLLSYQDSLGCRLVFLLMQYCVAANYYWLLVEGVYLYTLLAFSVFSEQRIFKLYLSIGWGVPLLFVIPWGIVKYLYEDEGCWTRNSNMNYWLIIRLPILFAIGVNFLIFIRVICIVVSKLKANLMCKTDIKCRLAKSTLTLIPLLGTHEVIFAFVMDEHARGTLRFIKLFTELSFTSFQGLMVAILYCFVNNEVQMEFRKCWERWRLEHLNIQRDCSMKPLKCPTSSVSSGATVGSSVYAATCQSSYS
Method: as §1, §2, §3, §4, §5, §6, §7, §8

[7] = molecular target: T7, rat GIP receptor (rGIPr) (Rattus norvegicus, UniProt P43219); experiment: BSA-cAMP assay, cells expressing rat GIP receptor; conditions: BSA-cAMP assay
T7 construct: expressed in transfected cells; host or cells: HEK293s or CHO cells
T7 sequence (P43219 19-455): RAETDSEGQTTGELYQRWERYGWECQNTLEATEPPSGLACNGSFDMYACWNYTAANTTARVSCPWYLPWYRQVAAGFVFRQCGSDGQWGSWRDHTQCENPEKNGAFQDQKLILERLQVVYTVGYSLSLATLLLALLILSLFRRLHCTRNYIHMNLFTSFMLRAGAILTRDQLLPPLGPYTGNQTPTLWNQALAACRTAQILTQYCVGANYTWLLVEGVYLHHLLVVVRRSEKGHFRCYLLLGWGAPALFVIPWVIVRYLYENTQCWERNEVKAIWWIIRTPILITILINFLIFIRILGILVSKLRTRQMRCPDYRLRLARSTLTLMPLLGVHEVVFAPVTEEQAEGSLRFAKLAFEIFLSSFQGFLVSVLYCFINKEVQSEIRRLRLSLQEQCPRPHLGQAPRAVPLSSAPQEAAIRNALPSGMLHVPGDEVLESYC
Method: as §1, §2, §3, §4, §5, §6, §7, §8

[8] = batch 1 unless a batch is given, read-out: cAMP activity hGIPr (EC50)
[9] = batch 1 unless a batch is given, read-out: cAMP activity hGLP1r (EC50)
[10] = batch 1 unless a batch is given, read-out: cAMP activity hGCGr (EC50)
[11] = read-out: cAMP activity rGLP1r (EC50)
[12] = read-out: cAMP activity mGIPr (EC50)
[13] = read-out: cAMP activity mGLP1r (EC50)
[14] = read-out: cAMP activity rGIPr (EC50)
[15] = Batch 1, read-out: hGLP1r cAMP activity EC50
[16] = Batch 1, read-out: hGCGr cAMP activity EC50
[17] = Batch 1, read-out: mGIPr cAMP activity EC50

T3 sequence (P47871 26-477): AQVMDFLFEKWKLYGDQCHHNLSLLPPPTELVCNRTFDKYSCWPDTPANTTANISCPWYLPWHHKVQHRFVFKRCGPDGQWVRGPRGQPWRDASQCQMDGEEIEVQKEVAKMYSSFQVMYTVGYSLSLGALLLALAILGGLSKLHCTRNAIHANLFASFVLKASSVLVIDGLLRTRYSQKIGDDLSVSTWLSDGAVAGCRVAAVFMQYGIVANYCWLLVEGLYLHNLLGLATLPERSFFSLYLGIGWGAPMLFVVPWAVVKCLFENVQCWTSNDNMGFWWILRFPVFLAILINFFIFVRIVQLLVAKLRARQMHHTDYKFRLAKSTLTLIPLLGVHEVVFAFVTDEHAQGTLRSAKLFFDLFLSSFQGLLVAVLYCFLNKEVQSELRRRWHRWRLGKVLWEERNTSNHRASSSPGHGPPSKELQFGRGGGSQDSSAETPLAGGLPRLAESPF
T2 sequence (P43220 24-463): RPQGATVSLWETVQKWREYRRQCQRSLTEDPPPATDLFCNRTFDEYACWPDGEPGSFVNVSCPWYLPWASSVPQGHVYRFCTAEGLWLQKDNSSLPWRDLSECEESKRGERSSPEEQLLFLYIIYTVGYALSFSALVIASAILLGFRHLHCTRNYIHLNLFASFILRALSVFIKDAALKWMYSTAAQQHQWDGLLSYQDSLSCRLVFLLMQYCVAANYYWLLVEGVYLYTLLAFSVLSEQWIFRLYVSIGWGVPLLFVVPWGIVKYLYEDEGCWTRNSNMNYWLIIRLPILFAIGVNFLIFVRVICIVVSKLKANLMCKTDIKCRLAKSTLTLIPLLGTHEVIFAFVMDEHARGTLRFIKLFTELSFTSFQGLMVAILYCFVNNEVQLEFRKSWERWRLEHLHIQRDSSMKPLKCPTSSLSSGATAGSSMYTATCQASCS

## IP193 (HGEGTFTSDVSSYLEGQAAKEFIAWLVKGAAAGGSGSTASSGSGSATGGGGCPPCPAPEF; also: forms dimer via hinge disulfides)
[1]; [8]
  EC50: 450 nM
[2]; [9]
  EC50: 0.064 nM
[3]; [10]
  EC50: 780 nM

## IP196 (HGEGTFTSDVSSYLEGQAAKEFIAWLVKGAAAGGSGSTASSGSGSATGGGGAPEF; /note=“Description of Artificial Sequence Synthetic Peptide-linker-hinge polypeptide”)
[2]; [9]
  EC50: 0.073 nM

## IP231 (HGEGTFTSDVSSYLEEQAAKEFIAWLVKGGGGGGSGGGGSGGGGSGGGGSATHTCPPC; also: forms dimer via hinge disulfides)
[2]; [9]
  EC50: 0.067 nM

## IP238 (HGEGTFTSDVSSYLEGQAAKEFIAWLVKGGGGGGSGGGGSGGGGSAESKYGPPCPPC; also: forms dimer via hinge disulfides)
[1]; [8]
  EC50: 310 nM
[2]; [9]
  EC50: 0.058 nM

## IP275: Fc fusion, IgG1-TM, SEQ ID NO:332; agonist peptide YSEGTFTSDYSKLLEKEAQRLFIEWLLKGP (YSEGTFTSDYSKLLEKEAQRLFIEWLLKGPGGGGGSGGGGSGGGGSGGGGSATHTCPPC)
[4]; [11]
  EC50: 0.062 nM
[1]; [8]
  EC50: 0.0087 nM
[5]; [12]
  EC50: 0.26 nM
[2]; [9]
  EC50: 0.92 nM
[6]; [13]
  EC50: 1.7 nM
[3]; [10]
  EC50: 230 nM
[7]; [14]
  EC50: 0.014 nM

## IP289: Fc fusion, IgG1-TM(ΔK), SEQ ID NO:342; agonist peptide YSEGTFTSDYSKLLEKEAERLFIEWLLKGP (YSEGTFTSDYSKLLEKEAERLFIEWLLKGPGGGGGSGGGGSGGGGSGGGGSATHTCPPC)
[4]; [11]
  EC50: 0.23 nM
[1]; [8]
  EC50: 0.01 nM
[5]; [12]
  EC50: 0.44 nM
[2]; [9]
  EC50: 3.4 nM
[6]; [13]
  EC50: 6.8 nM
[3]; [10]
  EC50: 240 nM
[7]; [14]
  EC50: 0.02 nM

## IP319 (YSEGTFTSDYSKLLEAAAAAAFAAWLAAAAGGGGGSGGGGSGGGGSGGGGSACPPC)
[2]; Batch 2, read-out: hGLP1r cAMP activity EC50
  EC50: 170 nM
[3]; Batch 2, read-out: hGCGr cAMP activity EC50
  EC50: > 445 nM

## IP353 (YSEGTFTSDYAAAAEAAAAAAFAAWLAKAAGGGGGSGGGGSGGGGSGGGGSACPPC)
[1]; Batch 1, read-out: hGIPr cAMP activity EC50
  EC50: 1 nM
[2]; [15]
  EC50: 20 nM
[3]; [16]
  EC50: > 3210 nM

## IP407: Fc fusion, IgG1-TM, SEQ ID NO:384; agonist peptide YSEGTFTSDYSKLLEEEAIRLFIEWLLAGG (YSEGTFTSDYSKLLEEEAIRLFIEWLLAGGGGGGSGGGGSGGGGSGGGGSATHTCPPC)
[5]; [17]
  EC50: 2.3 nM
[2]; [15]
  EC50: 0.25 nM
[3]; [16]
  EC50: > 163 nM

## IP413: Fc fusion, IgG1-TM, SEQ ID NO:388; agonist peptide YSEGTFTSDYSKLLEEEASRLFIEWLLAGG (YSEGTFTSDYSKLLEEEASRLFIEWLLAGGGGGGSGGGGSGGGGSGGGGSATHTCPPC)
[4]; Batch 1, read-out: rGLP1r cAMP activity EC50
  EC50: 0.048 nM
[5]; [17]
  EC50: 3.7 nM
[2]; [15]
  EC50: 0.19 nM
[6]; Batch 1, read-out: mGLP1r cAMP activity EC50
  EC50: 8.9 nM
[3]; [16]
  EC50: 7.6 nM
[7]; Batch 1, read-out: rGIPr cAMP activity EC50
  EC50: > 113 nM

## IP420: Fc fusion, IgG1-TM, SEQ ID NO:391; agonist peptide YSEGTFTSDYSKLLEEEATRLFIEWLLAGG (YSEGTFTSDYSKLLEEEATRLFIEWLLAGGGGGGSGGGGSGGGGSGGGGSATHTCPPC)
[5]; [17]
  EC50: 2.6 nM
[2]; [15]
  EC50: 0.082 nM
[3]; [16]
  EC50: 21 nM
